Test results taken from US5985836A, “Alpha-1 proteinase inhibitor binding peptides” (Bayer Corporation, priority 1998, dated 1999).
Ends that are not written are not given here.

Legend:
AlPI = biological target: T1, AlPI (Homo sapiens, UniProt P01009); experiment: Effect of peptide density on AlPI capture from Eff. II+III, 4M GdnHCl final strip; type: binding; details: 4° C.; for Mass AlPI per Eluate Fraction, 1M NaCl / Mass AlPI per Eluate Fraction, Flowthrough / Mass AlPI per Eluate Fraction, 4M GdnHCl: * Below detection limit
T1 construct: Eff; II+III is a process intermediate in the Cohn plasma fractionation process; tissue Bayer Corporation (Clayton, N.C.); host or cells: plasma fraction: Cohn Effluent II+III
T1 sequence (P01009 25-418): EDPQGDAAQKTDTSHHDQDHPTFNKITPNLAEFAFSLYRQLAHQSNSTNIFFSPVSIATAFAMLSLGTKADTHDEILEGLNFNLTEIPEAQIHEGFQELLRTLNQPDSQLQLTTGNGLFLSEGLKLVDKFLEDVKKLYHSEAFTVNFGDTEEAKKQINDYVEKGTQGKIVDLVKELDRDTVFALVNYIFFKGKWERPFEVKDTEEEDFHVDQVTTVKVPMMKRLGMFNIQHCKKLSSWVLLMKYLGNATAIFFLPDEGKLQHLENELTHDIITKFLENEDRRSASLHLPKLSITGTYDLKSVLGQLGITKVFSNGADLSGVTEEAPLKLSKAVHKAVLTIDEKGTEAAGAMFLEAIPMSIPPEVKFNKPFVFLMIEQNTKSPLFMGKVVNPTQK
Protocol: The substitution density of the peptide VIFLVR (SEQ ID NO:37) on the Tosohaas resin was reduced by the varying the ratio of Fmoc-L-Ala/Boc-L-Ala following linkage of the Totda linker. A similar procedure was outlined previously (Buettner et al. 1997). The peptide was then synthesized onto these resins. A 1.0 ml aliquot of neat Eff. II+III was injected onto the columns, and the chromatography cycle was the same as used for other studies involving Eff. II+III. The one exception was the use of 4M guanidine hydrochloride (GdnHCl) in lieu of 2% acetic acid as the final strip.

A1PI = biological target: T2, A1PI (Homo sapiens, UniProt P01009); experiment: A1PI binding on peptide-resin column, injection of 1 mg A1PI in equilibration buffer; details: for % of Total A1PI Eluted by Fraction (Based on Absorbance at 280 nm), 1M NaCl / % of Total A1PI Eluted by Fraction (Based on Absorbance at 280 nm), 2% Acetic Acid / % of Total A1PI Eluted by Fraction (Based on Absorbance at 280 nm), Flowthrough: 1 mg A1PI; for Percent AlPI Eluted by Fraction, 1M NaCl / Percent AlPI Eluted by Fraction, 2% Acetic Acid / Percent AlPI Eluted by Fraction, Flowthrough: 1 mg AlPI
T2 construct: Human plasma is currently the only approved source of therapeutic AlPI
T2 sequence (P01009 25-418): as above
How it was run: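 Peptides synthesized on A-Totda-Toyopearl chelate resin (0.1 mmole/g) packed in 0.4×5 cm columns; 1 mg A1PI injected in equilibration buffer at 4 °C or 20 °C, 865 or 523 μl/min. Flowthrough, 1M/3M NaCl washes and 2% acetic acid eluate quantified by A280 or immunonephelometry as percent of total eluted.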

[1] = peptide density 6 μmol/g, 4° C.
[2] = peptide density 6 μmol/g, 20° C.
[3] = peptide density 17 μmol/g, 4° C.

VIFLVR
Percent Eluted by Fraction, 1M NaCl (AlPI; peptide density 6 μmol/g): 12% | Percent Eluted by Fraction, 4M GdnHCl (AlPI; peptide density 6 μmol/g): 0% | Percent Eluted by Fraction, Flowthrough (AlPI; peptide density 6 μmol/g): 88% | Mass AlPI per Eluate Fraction, 1M NaCl (AlPI; peptide density 6 μmol/g): 0.09 mg | Mass AlPI per Eluate Fraction, Flowthrough (AlPI; peptide density 6 μmol/g): 0.69 mg | Percent Eluted by Fraction, 1M NaCl (AlPI; peptide density 17 μmol/g): 44% | Percent Eluted by Fraction, 4M GdnHCl (AlPI; peptide density 17 μmol/g): 7% | Percent Eluted by Fraction, Flowthrough (AlPI; peptide density 17 μmol/g): 49% | Mass AlPI per Eluate Fraction, 1M NaCl (AlPI; peptide density 17 μmol/g): 0.36 mg | Mass AlPI per Eluate Fraction, 4M GdnHCl (AlPI; peptide density 17 μmol/g): 0.05 mg | Mass AlPI per Eluate Fraction, Flowthrough (AlPI; peptide density 17 μmol/g): 0.39 mg | Percent Eluted by Fraction, 1M NaCl (AlPI; peptide density 54 μmol/g): 0% | Percent Eluted by Fraction, 4M GdnHCl (AlPI; peptide density 54 μmol/g): 74% | Percent Eluted by Fraction, Flowthrough (AlPI; peptide density 54 μmol/g): 26% | Mass AlPI per Eluate Fraction, 4M GdnHCl (AlPI; peptide density 54 μmol/g): 0.57 mg | Mass AlPI per Eluate Fraction, Flowthrough (AlPI; peptide density 54 μmol/g): 0.20 mg | Percent Eluted by Fraction, 1M NaCl (AlPI; peptide density 62 μmol/g): 0% | Percent Eluted by Fraction, 4M GdnHCl (AlPI; peptide density 62 μmol/g): 83% | Percent Eluted by Fraction, Flowthrough (AlPI; peptide density 62 μmol/g): 17% | Mass AlPI per Eluate Fraction, 4M GdnHCl (AlPI; peptide density 62 μmol/g): 0.70 mg | Mass AlPI per Eluate Fraction, Flowthrough (AlPI; peptide density 62 μmol/g): 0.14 mg | Percent Eluted by Fraction, 1M NaCl (AlPI; peptide density 70 μmol/g): 0% | Percent Eluted by Fraction, 4M GdnHCl (AlPI; peptide density 70 μmol/g): 72% | Percent Eluted by Fraction, Flowthrough (AlPI; peptide density 70 μmol/g): 28% | Mass AlPI per Eluate Fraction, 4M GdnHCl (AlPI; peptide density 70 μmol/g): 0.69 mg | Mass AlPI per Eluate Fraction, Flowthrough (AlPI; peptide density 70 μmol/g): 0.26 mg | Percent Eluted by Fraction, 1M NaCl (AlPI; peptide density 100 μmol/g): 0% | Percent Eluted by Fraction, 4M GdnHCl (AlPI; peptide density 100 μmol/g): 82% | Percent Eluted by Fraction, Flowthrough (AlPI; peptide density 100 μmol/g): 18% | Mass AlPI per Eluate Fraction, 4M GdnHCl (AlPI; peptide density 100 μmol/g): 0.57 mg | Mass AlPI per Eluate Fraction, Flowthrough (AlPI; peptide density 100 μmol/g): 0.13 mg | % of Total A1PI Eluted by Fraction (Based on Absorbance at 280 nm), 1M NaCl (A1PI; Trp position mutations, 4° C.): 3% | % of Total A1PI Eluted by Fraction (Based on Absorbance at 280 nm), 2% Acetic Acid (A1PI; Trp position mutations, 4° C.): 97% | % of Total A1PI Eluted by Fraction (Based on Absorbance at 280 nm), Flowthrough (A1PI; Trp position mutations, 4° C.): 0% | % of Total A1PI Eluted by Fraction (Based on Absorbance at 280 nm), 1M NaCl (A1PI; Trp position mutations, 20° C.): 8% | % of Total A1PI Eluted by Fraction (Based on Absorbance at 280 nm), 2% Acetic Acid (A1PI; Trp position mutations, 20° C.): 92% | % of Total A1PI Eluted by Fraction (Based on Absorbance at 280 nm), Flowthrough (A1PI; Trp position mutations, 20° C.): 0% | % of Total A1PI Eluted by Fraction (Based on Absorbance at 280 nm), 1M NaCl (A1PI; VIFLVR point mutations, 4° C.): 3% | % of Total A1PI Eluted by Fraction (Based on Absorbance at 280 nm), 2% Acetic Acid (A1PI; VIFLVR point mutations, 4° C.): 97% | % of Total A1PI Eluted by Fraction (Based on Absorbance at 280 nm), Flowthrough (A1PI; VIFLVR point mutations, 4° C.): 0% | % of Total A1PI Eluted by Fraction (Based on Absorbance at 280 nm), 1M NaCl (A1PI; VIFLVR point mutations, 20° C.): 8% | % of Total A1PI Eluted by Fraction (Based on Absorbance at 280 nm), 2% Acetic Acid (A1PI; VIFLVR point mutations, 20° C.): 92% | % of Total A1PI Eluted by Fraction (Based on Absorbance at 280 nm), Flowthrough (A1PI; VIFLVR point mutations, 20° C.): 0% | Percent AlPI Eluted by Fraction, 1M NaCl (A1PI; [1]): 21% | Percent AlPI Eluted by Fraction, 2% Acetic Acid (A1PI; [1]): 0% | Percent AlPI Eluted by Fraction, Flowthrough (A1PI; [1]): 87% | Percent AlPI Eluted by Fraction, 1M NaCl (A1PI; [2]): 13% | Percent AlPI Eluted by Fraction, 2% Acetic Acid (A1PI; [2]): 0% | Percent AlPI Eluted by Fraction, Flowthrough (A1PI; [2]): 79% | Percent AlPI Eluted by Fraction, 1M NaCl (A1PI; [3]): 10% | Percent AlPI Eluted by Fraction, 2% Acetic Acid (A1PI; [3]): 2%
